Measurements as given in patent US20260041702A1.

Experiments:
[1] = target: TRFE receptor, TRF1, on Rat2 fibroblasts (rat) (UniProt Q99376); assay: HATRIC-LRC (LRC-TriCEPS) ligand-receptor capture on Rat2 fibroblasts, LC-MS/MS; positive control of the screen
[2] = target: PTK7 on Rat2 fibroblasts (rat); assay: HATRIC-LRC (LRC-TriCEPS) ligand-receptor capture on Rat2 fibroblasts, LC-MS/MS; reference BSA control ligand
[3] = target: GPC1 on Rat2 fibroblasts (rat) (UniProt P35053); assay: as above
Chain of UniProt P35053 (P35053 24-530): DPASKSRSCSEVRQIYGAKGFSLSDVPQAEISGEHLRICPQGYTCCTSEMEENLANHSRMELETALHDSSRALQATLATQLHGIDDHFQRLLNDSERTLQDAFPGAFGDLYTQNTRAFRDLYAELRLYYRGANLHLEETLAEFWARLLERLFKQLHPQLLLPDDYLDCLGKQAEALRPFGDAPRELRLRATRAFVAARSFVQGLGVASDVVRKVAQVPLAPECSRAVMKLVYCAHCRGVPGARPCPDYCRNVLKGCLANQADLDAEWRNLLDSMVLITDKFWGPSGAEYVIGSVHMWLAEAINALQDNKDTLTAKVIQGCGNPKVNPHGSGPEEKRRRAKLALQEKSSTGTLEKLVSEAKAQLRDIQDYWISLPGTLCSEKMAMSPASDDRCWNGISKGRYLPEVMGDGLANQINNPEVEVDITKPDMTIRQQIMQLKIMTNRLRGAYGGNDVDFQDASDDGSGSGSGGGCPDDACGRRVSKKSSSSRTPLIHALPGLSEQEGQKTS

[4] = target: CCN1 found in the Rat2 cell screen (rat) (UniProt Q9ES72); assay: as above
Chain of UniProt Q9ES72 (Q9ES72 25-379 limits assumed): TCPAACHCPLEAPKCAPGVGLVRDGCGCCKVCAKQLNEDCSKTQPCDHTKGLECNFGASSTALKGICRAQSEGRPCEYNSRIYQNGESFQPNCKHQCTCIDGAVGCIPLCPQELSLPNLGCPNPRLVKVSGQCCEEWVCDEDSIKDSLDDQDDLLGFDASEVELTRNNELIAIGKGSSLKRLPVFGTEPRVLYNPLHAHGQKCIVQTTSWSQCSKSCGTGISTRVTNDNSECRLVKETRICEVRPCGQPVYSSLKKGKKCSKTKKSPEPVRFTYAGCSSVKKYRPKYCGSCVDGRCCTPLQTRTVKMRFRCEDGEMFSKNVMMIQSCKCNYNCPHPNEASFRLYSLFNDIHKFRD

[5] = target: PTK7 on Rat2 fibroblasts (rat); assay: HATRIC-LRC (LRC-TriCEPS) ligand-receptor capture on Rat2 fibroblasts, LC-MS/MS; reference TRFE control ligand
[6] = target: GPC1 on Rat2 fibroblasts (rat) (UniProt P35053); assay: as above
[7] = target: CCN1 found in the Rat2 cell screen (rat) (UniProt Q9ES72); assay: as above
[8] = target: CCN1 found in the HEK293A cell screen (human) (UniProt O00622); assay: HATRIC-LRC (LRC-TriCEPS) ligand-receptor capture on HEK293A cells, LC-MS/MS; reference TRFE control ligand
Chain of UniProt O00622 (O00622 25-381 limits assumed): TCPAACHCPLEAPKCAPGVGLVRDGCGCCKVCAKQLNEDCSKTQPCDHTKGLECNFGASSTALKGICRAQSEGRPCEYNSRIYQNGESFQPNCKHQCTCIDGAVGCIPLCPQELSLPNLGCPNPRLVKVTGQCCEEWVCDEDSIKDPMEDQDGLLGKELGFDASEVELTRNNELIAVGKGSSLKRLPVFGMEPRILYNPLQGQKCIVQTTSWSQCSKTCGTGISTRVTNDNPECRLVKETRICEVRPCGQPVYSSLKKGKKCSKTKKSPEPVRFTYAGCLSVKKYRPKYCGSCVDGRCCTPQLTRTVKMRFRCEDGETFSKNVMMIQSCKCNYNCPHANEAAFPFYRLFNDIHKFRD

[9] = target: PTK7 on HEK293A cells (human) (UniProt Q13308); assay: as above
Chain of UniProt Q13308 (Q13308 31-1070 limits assumed): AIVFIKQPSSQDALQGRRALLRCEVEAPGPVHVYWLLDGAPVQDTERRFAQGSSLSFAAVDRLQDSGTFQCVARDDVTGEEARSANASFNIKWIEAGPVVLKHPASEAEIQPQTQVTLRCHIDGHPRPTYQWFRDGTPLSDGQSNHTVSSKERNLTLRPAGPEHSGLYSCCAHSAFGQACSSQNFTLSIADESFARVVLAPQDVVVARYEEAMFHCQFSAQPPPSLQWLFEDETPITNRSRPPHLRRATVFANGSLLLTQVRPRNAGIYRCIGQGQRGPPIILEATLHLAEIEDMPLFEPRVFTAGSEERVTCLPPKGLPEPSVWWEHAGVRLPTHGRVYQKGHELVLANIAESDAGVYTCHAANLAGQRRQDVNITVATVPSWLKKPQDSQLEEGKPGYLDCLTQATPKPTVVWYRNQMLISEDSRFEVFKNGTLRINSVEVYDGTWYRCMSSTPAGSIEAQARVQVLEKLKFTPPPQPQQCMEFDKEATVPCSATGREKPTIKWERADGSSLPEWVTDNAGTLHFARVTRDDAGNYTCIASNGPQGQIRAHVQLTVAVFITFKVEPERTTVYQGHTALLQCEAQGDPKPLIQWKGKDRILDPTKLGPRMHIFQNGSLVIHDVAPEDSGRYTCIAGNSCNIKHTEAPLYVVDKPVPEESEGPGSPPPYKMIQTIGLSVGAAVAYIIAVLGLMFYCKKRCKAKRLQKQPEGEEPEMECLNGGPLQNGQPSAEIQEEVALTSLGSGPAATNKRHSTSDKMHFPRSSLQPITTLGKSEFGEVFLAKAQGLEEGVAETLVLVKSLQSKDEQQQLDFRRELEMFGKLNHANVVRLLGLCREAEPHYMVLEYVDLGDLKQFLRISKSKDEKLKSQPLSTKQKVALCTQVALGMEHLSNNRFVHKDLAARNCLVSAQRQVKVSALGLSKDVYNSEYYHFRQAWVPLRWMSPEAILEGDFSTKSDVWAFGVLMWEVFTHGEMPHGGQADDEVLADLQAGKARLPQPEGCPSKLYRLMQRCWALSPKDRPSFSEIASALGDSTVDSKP

[10] = target: GPC4 on HEK293A cells (human) (UniProt O75487); assay: as above
Chain of UniProt O75487 (O75487 19-529 limits assumed): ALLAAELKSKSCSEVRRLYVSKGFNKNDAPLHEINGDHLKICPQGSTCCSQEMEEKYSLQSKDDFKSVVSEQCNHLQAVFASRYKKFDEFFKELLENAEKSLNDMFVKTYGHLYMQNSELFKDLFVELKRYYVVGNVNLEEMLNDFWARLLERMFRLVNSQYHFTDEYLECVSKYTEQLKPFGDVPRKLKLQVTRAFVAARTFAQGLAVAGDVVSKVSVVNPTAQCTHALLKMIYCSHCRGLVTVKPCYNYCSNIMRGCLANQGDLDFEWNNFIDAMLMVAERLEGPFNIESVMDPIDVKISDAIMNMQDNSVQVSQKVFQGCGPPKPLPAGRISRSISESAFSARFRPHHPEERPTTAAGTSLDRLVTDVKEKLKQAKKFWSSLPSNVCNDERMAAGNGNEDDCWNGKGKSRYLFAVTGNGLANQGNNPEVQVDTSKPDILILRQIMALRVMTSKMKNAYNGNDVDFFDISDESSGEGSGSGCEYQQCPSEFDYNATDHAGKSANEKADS

[11] = target: GPC1 on HEK293A cells (human) (UniProt P35052); assay: as above
Chain of UniProt P35052 (P35052 24-530 limits assumed): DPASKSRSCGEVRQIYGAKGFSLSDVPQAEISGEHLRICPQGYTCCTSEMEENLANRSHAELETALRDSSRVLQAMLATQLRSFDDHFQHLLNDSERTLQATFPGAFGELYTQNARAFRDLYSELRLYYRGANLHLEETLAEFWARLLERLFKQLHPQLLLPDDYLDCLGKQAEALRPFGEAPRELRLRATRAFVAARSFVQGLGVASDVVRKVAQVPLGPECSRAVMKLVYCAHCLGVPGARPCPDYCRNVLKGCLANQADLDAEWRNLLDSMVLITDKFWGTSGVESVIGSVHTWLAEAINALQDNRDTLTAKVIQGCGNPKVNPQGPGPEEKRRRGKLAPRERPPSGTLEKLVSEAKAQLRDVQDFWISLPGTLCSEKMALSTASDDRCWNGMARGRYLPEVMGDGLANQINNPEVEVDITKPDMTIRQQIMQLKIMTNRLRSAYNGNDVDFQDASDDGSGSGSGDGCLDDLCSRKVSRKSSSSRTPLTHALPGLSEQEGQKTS

[12] = target: CCN1 found in the HEK293A cell screen (human) (UniProt O00622); assay: HATRIC-LRC (LRC-TriCEPS) ligand-receptor capture on HEK293A cells, LC-MS/MS; reference BSA control ligand
[13] = target: PTK7 on HEK293A cells (human) (UniProt Q13308); assay: as above
[14] = target: GPC4 on HEK293A cells (human) (UniProt O75487); assay: as above
[15] = target: GPC1 on HEK293A cells (human) (UniProt P35052); assay: as above

Chain of UniProt Q99376 (Q99376 whole entry): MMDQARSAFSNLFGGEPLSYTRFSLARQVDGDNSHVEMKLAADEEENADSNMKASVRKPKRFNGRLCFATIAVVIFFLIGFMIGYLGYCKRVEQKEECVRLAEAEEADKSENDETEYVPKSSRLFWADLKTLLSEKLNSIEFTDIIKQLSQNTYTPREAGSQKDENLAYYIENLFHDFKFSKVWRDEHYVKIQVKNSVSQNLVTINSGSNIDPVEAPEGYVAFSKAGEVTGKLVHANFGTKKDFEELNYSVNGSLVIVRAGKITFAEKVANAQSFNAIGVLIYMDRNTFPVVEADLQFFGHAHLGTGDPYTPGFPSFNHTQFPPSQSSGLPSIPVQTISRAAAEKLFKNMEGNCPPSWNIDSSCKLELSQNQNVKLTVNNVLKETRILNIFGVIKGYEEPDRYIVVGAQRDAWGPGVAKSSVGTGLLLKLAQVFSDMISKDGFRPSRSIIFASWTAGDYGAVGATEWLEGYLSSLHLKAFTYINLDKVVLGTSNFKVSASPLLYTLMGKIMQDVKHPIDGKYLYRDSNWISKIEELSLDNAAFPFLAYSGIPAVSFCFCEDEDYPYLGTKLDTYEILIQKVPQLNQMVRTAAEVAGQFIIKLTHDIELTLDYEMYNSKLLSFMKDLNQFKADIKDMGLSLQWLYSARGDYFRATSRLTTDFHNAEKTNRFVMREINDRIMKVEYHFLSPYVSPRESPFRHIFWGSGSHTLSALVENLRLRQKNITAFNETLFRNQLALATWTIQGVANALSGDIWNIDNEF

Row | Molecule | log 2 (FC), TRFE group against d34CCN2 group (log2 fold change) [1] | log 2 (FC) enrichment relative to BSA (log2 fold change) [2] | log 2 (FC) enrichment relative to BSA (log2 fold change) [3] | log 2 (FC) enrichment relative to BSA (log2 fold change) [4] | log 2 (FC) enrichment relative to TRFE (log2 fold change) [5] | log 2 (FC) enrichment relative to TRFE (log2 fold change) [6] | log 2 (FC) enrichment relative to TRFE (log2 fold change) [7] | log 2 (FC) enrichment relative to TRFE (log2 fold change) [8] | log 2 (FC) enrichment relative to TRFE (log2 fold change) [9] | log 2 (FC) enrichment relative to TRFE (log2 fold change) [10] | log 2 (FC) enrichment relative to TRFE (log2 fold change) [11] | log 2 (FC) enrichment relative to BSA (log2 fold change) [12] | log 2 (FC) enrichment relative to BSA (log2 fold change) [13] | log 2 (FC) enrichment relative to BSA (log2 fold change) [14] | log 2 (FC) enrichment relative to BSA (log2 fold change) [15]
1 | transferrin (TRFE) coupled to TriCEPS v3.0 (ligand) | -2.8 |  |  |  |  |  |  |  |  |  |  |  |  |  | 
2 | recombinant, human C-terminal (domains III-IV) CCN2 coupled to TriCEPS v3.0 (ligand, UniProt P29279 197-349, looked up, coupled to the trifunctional TriCEPS v3.0 molecule (site of coupling not stated)) ANCLVQTTEWSACSKTCGMGISTRVTNDNASCRLEKQSRLCMVRPCEADLEENIKKGKKCIRTPKISKPIKFELSGCTSMKTYRAKFCGVCTDGRCCTPHRTTTLPVEFKCPDGEVMKKNMMFIKTCACHYNCPGDNDIFESLYYRKMYGDMA |  | 2.7 | 4.2 | 3.4 | 3 | 4.4 | 4.1 | 4.73 | 3.09 | 2.84 | 4.19 | 5.63 | 3.26 | 2.85 | 2.85
